pKd: −log10 of the molar value.
Tests used:
[1] = target: Mammalian cell-expressed N6 (mN6), broadly neutralising anti-HIV monoclonal antibody N6 expressed in HEK-293T cells (human); test: SPR
[2] = target: Plant-expressed N6 (pN6), broadly neutralising anti-HIV monoclonal antibody N6 expressed in glycoengineered ΔXF N. benthamiana (human); test: SPR
Sequence of Plant-expressed N6 (pN6), broadly neutralising anti-HIV monoclonal antibody N6 expressed in glycoengineered ΔXF N. benthamiana (human) (heavy, as listed by the source, chain 1 of 2): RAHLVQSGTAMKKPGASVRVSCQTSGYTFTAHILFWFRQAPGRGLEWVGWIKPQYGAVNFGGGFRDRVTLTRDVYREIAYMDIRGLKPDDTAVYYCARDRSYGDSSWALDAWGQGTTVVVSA
Sequence of Plant-expressed N6 (pN6), broadly neutralising anti-HIV monoclonal antibody N6 expressed in glycoengineered ΔXF N. benthamiana (human) (light, as listed by the source, chain 2 of 2): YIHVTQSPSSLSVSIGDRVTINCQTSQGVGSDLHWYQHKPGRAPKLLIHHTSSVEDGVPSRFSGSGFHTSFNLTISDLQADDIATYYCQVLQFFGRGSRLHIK

Sequence of soluble FcγRIIIa (P08637 17-208): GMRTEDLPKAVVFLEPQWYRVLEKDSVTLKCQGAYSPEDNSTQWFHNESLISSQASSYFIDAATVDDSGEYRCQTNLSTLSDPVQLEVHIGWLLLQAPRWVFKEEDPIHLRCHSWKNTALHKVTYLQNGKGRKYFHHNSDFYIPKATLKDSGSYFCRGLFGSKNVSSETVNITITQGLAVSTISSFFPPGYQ
Sequence of Mammalian cell-expressed N6 (mN6), broadly neutralising anti-HIV monoclonal antibody N6 expressed in HEK-293T cells (human) (heavy, as listed by the source, chain 1 of 2): as the sequence (heavy, as listed by the source, chain 1 of 2) above
Sequence of Mammalian cell-expressed N6 (mN6), broadly neutralising anti-HIV monoclonal antibody N6 expressed in HEK-293T cells (human) (light, as listed by the source, chain 2 of 2): as the sequence (light, as listed by the source, chain 2 of 2) above

Row | Substance | pKd [1] | pKd [2]
1 | recombinant, soluble HIV-1 UG37 gp140 (domain or fragment) | 7.77 | 7.92
2 | soluble FcγRIIIa (from UniProt P08637 17-208) (receptor) | 6.07 | 7.19
